This assay concerns the target ubiquitin tagged Ac-AChBP (Aplysia californica acetylcholine binding protein) (Aplysia californica). Briefly: SEC; analytical Superdex 200 10/300 calibrated with molecular weight standards; oligomerization state in solution. A general note: Size exclusion chromatography separates by hydrodynamic size, large species first.

This is an account of results in paper PMC4909209.

In the case of “ubiquitin tagged Ac-AChBP (Aplysia californica acetylcholine binding protein) (natural protein)”, the stoichiometry N (in general, the number of molecules, sites or subunits per partner or assembly) stood at 5.
